Assay [1] concerns the target T1, B7-1-Fc (R&D Systems Cat #140-B1) (UniProt P33681 35-242).
T1 construct: Bought reagent; also called CD80; not shown: Fc part of the bought fusion
T1 sequence (looked up): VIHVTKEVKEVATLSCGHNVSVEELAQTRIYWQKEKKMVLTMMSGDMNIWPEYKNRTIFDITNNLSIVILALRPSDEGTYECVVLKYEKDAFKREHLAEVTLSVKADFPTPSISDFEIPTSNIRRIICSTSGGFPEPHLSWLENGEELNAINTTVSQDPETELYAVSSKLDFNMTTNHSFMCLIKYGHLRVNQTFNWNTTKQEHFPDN
Briefly: SPR (Biacore X100); molecule captured on biotin-lysozyme, B7-1-Fc as analyte.

Assay [2] has as its target T1, B7-1-Fc (R&D Systems Cat #140-B1). Described as above. The source holds these as a separate data set.
Procedure: The theoretical maximum binding signal for the analyte (Rmax) was calculated based on the amount of captured IgG-VLD protein, accounting for the molecular weight of the analyte and ligand.
The target is the same in assay [3]. Briefly: BLItz bio-layer interferometry; D1.3 IgG held on immobilised lysozyme, B7-1-Fc added at Point 1, buffer at Point 2. (In general: Biolayer interferometry detects binding as a change in optical thickness at a sensor tip.)
Source text: At Point 2, B7-1-Fc was replaced with Buffer. […] At Point 2, B7-1-Fc was replaced with Buffer.

Where two headings read alike, the source gives them in different places.

B1: D1.3 Fab-VLDx1 (LC) (bispecific antibody)
heavy: EVKLQESGPGLVAPSQSLSITCTVSGFSLTGYGVNWVRQPPGKGLEWLGMIWGDGNTDYNSALKSRLSISKDNSKSQVFLKMNSLHTDDTARYYCARERDYRLDYWGQGTTVTVSSASTKGPSVFPLAPSSKSTSGGTAALGCLVKDYFPEPVTVSWNSGALTSGVHTFPAVLQSSGLYSLSSVVTVPSSSLGTQTYICNVNHKPSNTKVDKRVEPKSCAAAGLGGHHHHHHGAAEQKLISEEDL
light: DIELTQSPASLSASVGETVTITCRASGNIHNYLAWYQQKQGKSPQLLVYYTTTLADGVPSRFSGSGSGTQYSLKINSLQPEDFGSYYCQHFWSTPRTFGGGTKLELKRTVAAPSVFIFPPSDEQLKSGTASVVCLLNNFYPREAKVQWKVDNALQSGNSQESVTEQDSKDSTYSLSSTLTLSKADYEKHKVYACEVTHQGLSSPVTKSFNRGECSGGGGSGGGGSGGGGSGGGGSKAMHVAQPAVVLASSRGIASFVCEYASPGKYTEVRVTVLRQADSQVTEVCAATYMTGNELTFLDDSICTGTSSGNQVNLTIQGLRAMDTGLYICKVELMYPPPYYLGIGNGTQIYVIDPEPSPDSN
notes: also called D1.3 VLDx1 (LC); D1.3 Fab-VLDx1 (CL)
In general, Kd refers to the concentration at which binding is half-saturated. Higher therefore signals lower affinity. In general, koff refers to a measure of how fast the partners let go of each other. A high value points to fast dissociation. In general, kon refers to the rate constant with which the complex forms. In assay [1], B1 returned a Kd of 13.6 nM, a koff of 0.00296 s⁻¹ and a kon of 218000 M⁻¹ s⁻¹.

B2: D1.3 Fab-VLDx2 (HC+LC) (bispecific antibody)
heavy: EVKLQESGPGLVAPSQSLSITCTVSGFSLTGYGVNWVRQPPGKGLEWLGMIWGDGNTDYNSALKSRLSISKDNSKSQVFLKMNSLHTDDTARYYCARERDYRLDYWGQGTTVTVSSASTKGPSVFPLAPSSKSTSGGTAALGCLVKDYFPEPVTVSWNSGALTSGVHTFPAVLQSSGLYSLSSVVTVPSSSLGTQTYICNVNHKPSNTKVDKKVEPKSCSGGGGSGGGGSGGGGSGGGGSKAMHVAQPAVVLASSRGIASFVCEYASPGKYTEVRVTVLRQADSQVTEVCAATYMTGNELTFLDDSICTGTSSGNQVNLTIQGLRAMDTGLYICKVELMYPPPYYLGIGNGTQIYVIDPEPSPDSN
light: B1 light
notes: also called D1.3 VLDx2 (HC+LC); D1.3 Fab-VLDx2 (LC+HC)
In assay [1], B2 had a Kd of 9.73 nM, an off-rate constant (koff) of 0.00433 s⁻¹ and an association rate constant (kon) of 445000 M⁻¹ s⁻¹.

B3: D1.3 IgG-VLDx4 (HC+LC) (bispecific antibody)
heavy: not shown
light: B1 light
notes: also called IgG Imx4 (HC+LC); IgG Imx4 (HCLC)
In assay [2], B3 came in with a Kd of 5.47 nM, a koff of 0.0029 s⁻¹ and a kon of 530000 M⁻¹ s⁻¹.

B4: D1.3 IgG-VLDx2 (LC) (bispecific antibody)
heavy: not shown
light: B1 light
notes: unfused heavy chain; also called D1.3 IgG-VDLx2 (LC); bi-specific-D1.3 IgG-VLDx2 (LC)
Turning to B4, in assay [2], the Kd stood at 24.5 nM, the koff worked out at 0.004 s⁻¹ and the on-rate (kon) came to 163000 M⁻¹ s⁻¹.

B5: D1.3 IgG-VLDx2 (HC) (bispecific antibody)
heavy: not shown
light: DIELTQSPASLSASVGETVTITCRASGNIHNYLAWYQQKQGKSPQLLVYYTTTLADGVPSRFSGSGSGTQYSLKINSLQPEDFGSYYCQHFWSTPRTFGGGTKLELKRTVAAPSVFIFPPSDEQLKSGTASVVCLLNNFYPREAKVQWKVDNALQSGNSQESVTEQDSKDSTYSLSSTLTLSKADYEKHKVYACEVTHQGLSSPVTKSFNRGEC
notes: unfused kappa light chain; also called bi-specific-D1.3 IgG-VLDx2 (HC)
In assay [2], B5 gave a Kd of 5.44 nM, a koff of 0.0028 s⁻¹ and an on-rate (kon) of 516000 M⁻¹ s⁻¹.

B6: D1.3 Fab-VLDx1 (HC) (bispecific antibody)
heavy: B2 heavy
light: B5 light
As to B6, in assay [1], binding was put at a Kd of 5.41 nM, the koff stood at 0.00285 s⁻¹ and the kon is 526000 M⁻¹ s⁻¹.

B7: D1.3 anti-lysozyme antibody [D1.3 IgG] (antibody, V domains shown)
VH: EVKLQESGPGLVAPSQSLSITCTVSGFSLTGYGVNWVRQPPGKGLEWLGMIWGDGNTDYNSALKSRLSISKDNSKSQVFLKMNSLHTDDTARYYCARERDYRLDYWGQGTTVTVSS
VL: DIELTQSPASLSASVGETVTITCRASGNIHNYLAWYQQKQGKSPQLLVYYTTTLADGVPSRFSGSGSGTQYSLKINSLQPEDFGSYYCQHFWSTPRTFGGGTKLELKR
notes: Full length IgG1 kappa, expressed in Expi293 cells; parent of all IgG-VLD fusions; also called D1.3 IgG alone (full length); D1.3 antibody
As for B7, in assay [3], the binding result was “no binding”.

The values above are taken from patent US20210040177A1 (IMUNEXUS, published 2021).
